Assay [1] has as its target T1, Human CD3 antigen for detection (SinoBiological cat #CT038-H2508H); human CD3 epsilon-His and human CD3 … (human, UniProt P07766 23-126; P04234 22-105).
T1 construct: Bought antigen
The experiment in a line: Biacore T200 SPR, bispecific antibody captured, CD3 antigen as analyte, 1:1 Langmuir fit. The method, then:
The detection of antibody affinity to B7H3 and CD3 was performed in the form of capture antibody. BsAb was captured by CM5 biosensor chip (Cat. #BR-1005-30, GE) or Protein A (Cat. #29127556, GE) biosensor chip coupled with Anti-Human IgG Antibody (Cat. #BR-1008-39, Lot. #10260416, GE), and then each antigen flowed through the surface of the chip. The reaction signals were detected in real time with the Biacore T200 instrument to obtain the binding and dissociation curves. After the dissociation of each experimental cycle was completed, the chip was washed and regenerated with regeneration buffer Glycine1.5 (Cat #BR100354, GE) or 3 M MgCl₂ (from Human antibody capture kit, Cat. #BR100839, GE). The data were fitted with the (1:1) Langmuir model using GE Biacore T200 Evaluation version 3.0 software, and the affinity values were obtained.

Assay [2] has as its target T2, human B7H3 on the cell surface (A498, CT26/hB7H3, U87, Detroit562 cells) (human, UniProt Q5ZPR3 29-534).
T2 construct: Endogenous on A498, U87 and Detroit562 tumor cells, over-expressed on CT26/hB7H3
T2 sequence: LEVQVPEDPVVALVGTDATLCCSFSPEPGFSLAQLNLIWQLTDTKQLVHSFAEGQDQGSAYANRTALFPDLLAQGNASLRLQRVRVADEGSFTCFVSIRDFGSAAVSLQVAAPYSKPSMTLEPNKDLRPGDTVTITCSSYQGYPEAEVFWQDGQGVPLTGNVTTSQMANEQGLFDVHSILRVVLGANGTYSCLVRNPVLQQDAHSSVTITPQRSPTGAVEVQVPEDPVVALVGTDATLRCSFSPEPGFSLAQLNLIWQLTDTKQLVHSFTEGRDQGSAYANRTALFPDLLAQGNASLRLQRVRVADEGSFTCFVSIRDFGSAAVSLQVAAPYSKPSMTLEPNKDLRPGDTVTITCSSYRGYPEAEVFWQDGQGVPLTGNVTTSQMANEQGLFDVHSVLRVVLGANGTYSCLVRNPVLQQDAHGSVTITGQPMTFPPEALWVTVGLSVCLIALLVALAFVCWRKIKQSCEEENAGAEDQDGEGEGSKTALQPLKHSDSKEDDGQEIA
Description: FACS on CT26/hB7H3 cells over-expressing human B7H3, APC anti-human IgG Fc detection, geometric mean fluorescence. As for the experimental part:
(§1) The ability of bispecific antibodies to bind to cell surface antigens was detected by FACS method.
(§2) FACS buffer (98% PBS, 2% FBS) was added into a 96-well U-shaped bottom plate (corning, 3795) to resuspend the cells, the serially diluted antibodies were added, incubated at 4° C. for 1 hour, and the plate was washed with FACS buffer twice. Then APC anti-human IgG Fc Antibody (biolegend, Cat #409306, dilution at 1:50) was added into each well, incubated at 4° C. for 30 minutes, washed twice, the cells were resuspended in FACS buffer, and finally the fluorescence signal values were read by FACS CantoII (BD).

In assay [3] the target is T2, human B7H3 on the cell surface (A498, …). The experiment in a line: FACS on A498 cells expressing human B7H3, APC anti-human IgG Fc detection, geometric mean fluorescence. The method, then: as §1, §2
Assay [4] deals with human CD3 on the cell surface (Jurkat recombinant cells; T cells of PBMC) (human, UniProt P07766 23-207; P04234 22-171). Description: FACS on Jurkat recombinant cells expressing CD3, APC anti-human IgG Fc detection, geometric mean fluorescence. The method, then:
as §1, §2

In assay [5] the target is T2, human B7H3 on the cell surface (A498, …). Description: cell-based or functional assay.

T1 sequence (P07766 other isoform, or with tags, fused parts or gaps H2508H H2508H, chain 1 of 2): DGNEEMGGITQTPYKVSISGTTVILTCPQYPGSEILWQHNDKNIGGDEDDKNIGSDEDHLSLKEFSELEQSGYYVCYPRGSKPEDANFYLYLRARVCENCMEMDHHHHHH
T1 sequence (P04234 other isoform, or with tags, fused parts or gaps H2508H H2508H, chain 2 of 2): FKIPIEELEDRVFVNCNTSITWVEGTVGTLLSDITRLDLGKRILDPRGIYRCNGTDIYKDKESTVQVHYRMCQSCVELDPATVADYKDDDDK
Sequence of human CD3 on the cell surface (Jurkat recombinant cells; T cells of PBMC) (P07766 23-207, chain 1 of 2): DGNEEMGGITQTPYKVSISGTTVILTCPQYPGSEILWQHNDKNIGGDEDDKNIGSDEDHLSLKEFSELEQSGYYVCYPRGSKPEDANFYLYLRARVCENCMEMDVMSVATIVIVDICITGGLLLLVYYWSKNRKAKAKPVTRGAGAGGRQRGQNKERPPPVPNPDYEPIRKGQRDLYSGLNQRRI
Sequence of human CD3 on the cell surface (Jurkat recombinant cells; T cells of PBMC) (P04234 22-171, chain 2 of 2): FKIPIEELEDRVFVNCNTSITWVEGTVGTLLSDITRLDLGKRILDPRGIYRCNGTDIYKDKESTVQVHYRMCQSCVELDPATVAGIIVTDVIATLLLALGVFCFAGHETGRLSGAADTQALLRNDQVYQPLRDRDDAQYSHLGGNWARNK

B1: bispecific antibody 113 (AFF 3-2) (bispecific antibody)
chain 1: not shown
chain 2: QTVVTQEPSFSVSPGGTVTLTCGLSSGSVSTSHYPSWYQQTPGQAPRMLIYNTNTRSSGVPDRFSGSILGNKAALTITGAQADDESDYYCAIHVDRDIWVFGGGTKLTVLGGGGSGGGGSGGGGSQVQLVQSGGGVVQPGTSLRLSCAASGFIFSSSAMHWVRQAPGKGLEWVAVISYDGSNKYYVDSVKGRFTISRDNSKNTLYLQMNSLRAEDTAVYYCARSARLYASFDYWGQGALVTVSSGGGDKTHTCPPCPAPEAAGGPSVFLFPPKPKDTLMISRTPEVTCVVVDVSHEDPEVKFNWYVDGVEVHNAKTKPREEQYNSTYRVVSVLTVLHQDWLNGKEYKCKVSNKALPAPIEKTISKAKGQPREPQVCTLPPSREEMTKNQVSLSCAVKGFYPSDIAVEWESNGQPENNYKTTPPVLDSDGSFFLVSKLTVDKSRWQQGNVFSCSVMHEALHNHYTQKSLSLSPGK
notes: B7H3 bivalent CD3-B7H3 bispecific antibody, CD3 VH HRH-2
By Kd is commonly meant the equilibrium constant for the complex coming apart. A higher Kd goes with a looser complex. In assay [1], B1 had a Kd of 77.2 nM.

B2: NC2 (negative control bispecific antibody; B7H3 binding domain retained, CD3 binding domain replaced with a non-related antibody) (bispecific antibody)
chain 1: not shown
chain 2: QTVVTQEPSFSVSPGGTVTLTCGLSSGSVSTSHYPSWYQQTPGQAPRMLIYNTNTRSSGVPDRFSGSILGNKAALTITGAQADDESDYYCAIHVDRDIWVFGGGTKLTVLGGGGSGGGGSGGGGSQVQLVQSGGGVVQPGTSLRLSCAASGFIFSSSAMHWVRQAPGKGLEWVAVISYDGSNKYYVDSVKGRFTISRDNSKNTLYLQMNSLRAEDTAVYYCARSARLYASFDYWGQGALVTVSSGGGDKTHTCPPCPAPEAAGGPSVFLFPPKPKDTLMISRTPEVTCVVVDVSHEDPEVKFNWYVDGVEVHNAKTKPREEQYNSTYRVVSVLTVLHQDWLNGKEYKCKVSNKALPAPIEKTISKAKGQPREPQVCTLPPSREEMTKNQVSLSCAVKGFYPSDIAVEWESNGQPENNYKTTPPVLDSDGSFFLVSKLTVDKSRWQQGNVFSCSVMHEALHNHYTQKSLSLSPGK
notes: Control arm said to be anti-fluorescein
What is called EC50 (read off the curve) is the concentration needed to bring the measured effect to its halfway point. Regarding B2, the “EC50 (read off the curve)” value is roughly 4 nM in assay [2] and roughly 30 nM in assay [3]. In addition, in assay [4], the binding result is “no binding (tested: about 8000 nM (log 3.9 on the axis))”.

B3: bispecific antibody 131 (AFF3-1) (bispecific antibody)
chain 1: not shown
chain 2: QTVVTQEPSFSVSPGGTVTLTCGLSSGSVSTSHYPSWYQQTPGQAPRMLIYNTNTRSSGVPDRFSGSILGNKAALTITGAQADDESDYYCAIHVDRDIWVFGGGTKLTVLGGGGSGGGGSGGGGSQVQLVQSGGGVVQPGTSLRLSCAASGFIFSSSAMHWVRQAPGKGLEWVAVISYDGSNKYYVDSVKGRFTISRDNSKNTLYLQMNSLRAEDTAVYYCARSARLYASFDYWGQGALVTVSSGGGDKTHTCPPCPAPEAAGGPSVFLFPPKPKDTLMISRTPEVTCVVVDVSHEDPEVKFNWYVDGVEVHNAKTKPREEQYNSTYRVVSVLTVLHQDWLNGKEYKCKVSNKALPAPIEKTISKAKGQPREPQVCTLPPSREEMTKNQVSLSCAVKGFYPSDIAVEWESNGQPENNYKTTPPVLDSDGSFFLVSKLTVDKSRWQQGNVFSCSVMHEALHNHYTQKSLSLSPGK
notes: B7H3 bivalent CD3-B7H3 bispecific antibody, CD3 VH HRH-1; two-chain knob/hole Fc format
In the case of B3, in assay [1], binding was put at a Kd of 40.7 nM.

B4: bispecific antibody 177 (AFF3-7) (bispecific antibody)
chain 1: not shown
chain 2: QTVVTQEPSFSVSPGGTVTLTCGLSSGSVSTSHYPSWYQQTPGQAPRMLIYNTNTRSSGVPDRFSGSILGNKAALTITGAQADDESDYYCAIHVDRDIWVFGGGTKLTVLGGGGSGGGGSGGGGSQVQLVQSGGGVVQPGTSLRLSCAASGFIFSSSAMHWVRQAPGKGLEWVAVISYDGSNKYYVDSVKGRFTISRDNSKNTLYLQMNSLRAEDTAVYYCARSARLYASFDYWGQGALVTVSSGGGDKTHTCPPCPAPEAAGGPSVFLFPPKPKDTLMISRTPEVTCVVVDVSHEDPEVKFNWYVDGVEVHNAKTKPREEQYNSTYRVVSVLTVLHQDWLNGKEYKCKVSNKALPAPIEKTISKAKGQPREPQVCTLPPSREEMTKNQVSLSCAVKGFYPSDIAVEWESNGQPENNYKTTPPVLDSDGSFFLVSKLTVDKSRWQQGNVFSCSVMHEALHNHYTQKSLSLSPGK
notes: B7H3 bivalent CD3-B7H3 bispecific antibody, CD3 VH HRH-7
B4 showed a Kd in assay [1] of 162 nM.

B5: bispecific antibody 154 (AFF3-4) (bispecific antibody)
chain 1: not shown
chain 2: QTVVTQEPSFSVSPGGTVTLTCGLSSGSVSTSHYPSWYQQTPGQAPRMLIYNTNTRSSGVPDRFSGSILGNKAALTITGAQADDESDYYCAIHVDRDIWVFGGGTKLTVLGGGGSGGGGSGGGGSQVQLVQSGGGVVQPGTSLRLSCAASGFIFSSSAMHWVRQAPGKGLEWVAVISYDGSNKYYVDSVKGRFTISRDNSKNTLYLQMNSLRAEDTAVYYCARSARLYASFDYWGQGALVTVSSGGGDKTHTCPPCPAPEAAGGPSVFLFPPKPKDTLMISRTPEVTCVVVDVSHEDPEVKFNWYVDGVEVHNAKTKPREEQYNSTYRVVSVLTVLHQDWLNGKEYKCKVSNKALPAPIEKTISKAKGQPREPQVCTLPPSREEMTKNQVSLSCAVKGFYPSDIAVEWESNGQPENNYKTTPPVLDSDGSFFLVSKLTVDKSRWQQGNVFSCSVMHEALHNHYTQKSLSLSPGK
notes: B7H3 bivalent CD3-B7H3 bispecific antibody, CD3 VH HRH-4
The molecule B5 returned a Kd in assay [1] of 69.7 nM.

B6: NC1 (negative control bispecific antibody; B7H3 binding domain replaced with a non-related antibody, CD3 binding domain retained) (bispecific antibody)
chain 1: not shown
chain 2: DIQMTQSPSSVSASVGDRVTITCRASQDIANYLSWYQQKPGKSPKLLIYGTSNLEVGVPSRFSGSRSGTDFTLTISSLQPEDFATYYCLQDKEFPRTFGGGTKVEIKGGGGSGGGGSGGGGSEVQLVESGGGLVQPGGSLRLSCAASGFTFSHYYMAWVRQAPGKGLEWVTSISYEGDITYYGDSVKGRFTISRDNSKNTLYLQMNSLRAEDTATYYCASQTLRESFDYWGQGTLVTVSSGGGDKTHTCPPCPAPEAAGGPSVFLFPPKPKDTLMISRTPEVTCVVVDVSHEDPEVKFNWYVDGVEVHNAKTKPREEQYNSTYRVVSVLTVLHQDWLNGKEYKCKVSNKALPAPIEKTISKAKGQPREPQVCTLPPSREEMTKNQVSLSCAVKGFYPSDIAVEWESNGQPENNYKTTPPVLDSDGSFFLVSKLTVDKSRWQQGNVFSCSVMHEALHNHYTQKSLSLSPGK
notes: Control arm said to be an anti-fluorescein antibody; CD3 scFv with HRH-3
Regarding B6, in assay [5], the “Emax (%), PBMC-mediated killing of A498 cells (B7H3 high)” value amounted to 20.9%; the “Emax (%), PBMC-mediated killing of Detroit562 cells (B7H3 low)” value was determined as 0.95%; the “Emax (%), PBMC-mediated killing of U87 cells (B7H3 intermediate)” value stood at 3.8%; the “IC50 (nM), PBMC-mediated killing of A498 cells (B7H3 high)” value was greater than 300 nM. Also, in assay [5], the “IC50 (nM), PBMC-mediated killing of Detroit562 cells (B7H3 low)” value is greater than 300 nM and the “IC50 (nM), PBMC-mediated killing of U87 cells (B7H3 intermediate)” value is greater than 300 nM. In addition, the binding result in assay [3] is “no binding (tested: about 5000 nM (log 3.7 on the axis))”. Moreover, in assay [4], the “EC50 (read off the curve)” value is roughly 70 nM.

For the origin of these results see US20220242953A1 (JIANGSU HENGRUI MEDICINE, published 2022).
